One block for each binder: values may come before it.
Key:
Assay in all cases: ELISA; Lysates (HENG buffer: 50 mM HEPES-KOH pH 7.9, 150 mM NaCl, 20 mM Na2MoO4, 2 mM EDTA, 5% glycerol, 0.5% Triton X-100) of 293T cells stably expressing CDC37-nanoKAZ, nanoKAZ-HSP90β or nanoKAZ and transiently transfected with 3xFLAG-tagged kinases; 3xFLAG-kinase captured on 96-well plates coated with anti-FLAG M2, 4 °C for 3 h, washed; bound nanoKAZ fusion read by luminescence (Imax) with bis-coelenterazine, as …
Settings in all cases: partners not purified
[1] = target: T1, 3xFLAG-tagged DYRK4 (UniProt Q9NR20 1-520)
T1 construct: DYRK4; residues of F2A may remain at the C-terminus (surmise); also called 3xFLAG-DYRK4; source: 293T cells stably expressing CDC37-nanoKAZ, transiently transfected (pcDNA5/FRT/TO), in lysate
T1 sequence (looked up): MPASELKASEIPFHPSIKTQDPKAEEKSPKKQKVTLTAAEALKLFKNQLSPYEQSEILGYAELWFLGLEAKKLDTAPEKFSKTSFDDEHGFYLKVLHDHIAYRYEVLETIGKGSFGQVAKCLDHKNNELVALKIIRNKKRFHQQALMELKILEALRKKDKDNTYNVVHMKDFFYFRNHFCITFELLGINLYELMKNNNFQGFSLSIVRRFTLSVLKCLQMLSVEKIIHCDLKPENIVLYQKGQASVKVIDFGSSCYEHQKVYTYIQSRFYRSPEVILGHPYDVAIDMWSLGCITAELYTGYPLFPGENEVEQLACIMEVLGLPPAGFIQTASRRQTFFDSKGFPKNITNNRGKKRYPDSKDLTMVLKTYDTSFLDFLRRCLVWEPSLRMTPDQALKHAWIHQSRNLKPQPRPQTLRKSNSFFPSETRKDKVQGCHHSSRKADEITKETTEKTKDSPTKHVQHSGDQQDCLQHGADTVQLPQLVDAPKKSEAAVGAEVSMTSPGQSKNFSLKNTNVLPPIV

[2] = target: T2, 3xFLAG-tagged kinase-dead mutant of DYRK1A (K188R) (UniProt Q13627-1 1-763, K188R)
T2 construct: DYRK1A with Lys188 substituted to Arg; Expressed upstream of F2A-EGFP as m2; also called K188R mutant

[3] = target: T3, 3xFLAG-DYRK1A (Y319F/Y321F) (UniProt Q13627-1 1-763, Y319F | Y321F)
T3 construct: Expressed upstream of F2A-EGFP as m2; also called Y319F/Y321F mutant; DYRK1A mutant

[4] = target: T4, 3xFLAG-DYRK1A (Y159F) (UniProt Q13627-1 1-763, Y159F)
T4 construct: DYRK1A with the autophosphorylation site Tyr159 substituted to Phe; Expressed upstream of F2A-EGFP as m2

[5] = target: T5, 3xFLAG-DYRK1A (Y111F) (UniProt Q13627-1 1-763, Y111F)
T5 construct: DYRK1A with the autophosphorylation site Tyr111 substituted to Phe; Expressed upstream of F2A-EGFP as m2

[6] = target: T6, 3xFLAG-DYRK1A (Y145F/Y147F) (UniProt Q13627-1 1-763, Y145F | Y147F)
T6 construct: DYRK1A with the autophosphorylation sites Tyr145 and Tyr147 substituted to Phe; Expressed upstream of F2A-EGFP as m2

fold stronger interaction than 3xFLAG-DYRK1A [1]: 102 fold | fold stronger interaction than intact DYRK1A [2]: 17 fold | fold stronger interaction than intact DYRK1A [3]: 8 fold | fold stronger interaction than intact DYRK1A [4]: 8.4 fold | fold stronger interaction than intact DYRK1A [5]: 1.4 fold | fold stronger interaction than intact DYRK1A [6]: 2.4 fold
B1: CDC37-nanoKAZ (natural protein, UniProt Q16543 1-378, looked up)
chain: MVDYSVWDHIEVSDDEDETHPNIDTASLFRWRHQARVERMEQFQKEKEELDRGCRECKRKVAECQRKLKELEVAEGGKAELERLQAEAQQLRKEERSWEQKLEEMRKKEKSMPWNVDTLSKDGFSKSMVNTKPEKTEEDSEEVREQKHKTFVEKYEKQIKHFGMLRRWDDSQKYLSDNVHLVCEETANYLVIWCIDLEVEEKCALMEQVAHQTIVMQFILELAKSLKVDPRACFRQFFTKIKTADRQYMEGFNDELEAFKERVRGRAKLRIEKAMKEYEEEERKKRLGPGGLDPVEVYESLPEELQKCFDVKDVQMLQDAISKMDPTDAKYHMQRCIDSGLWVPNSKASEAKEGEEAGPGDPLLEAVPKTGDEKDVSV
notes: Kinase-specific co-chaperone CDC37; also called CDC37 fused with nanoKAZ; source: 293T cells stably expressing CDC37-nanoKAZ (pCAGIPuro vector), in lysate; not shown: nanoKAZ (luciferase reporter), C-terminal, kept

fold stronger interaction than intact DYRK1A [2]: 10 fold | fold stronger interaction than intact DYRK1A [3]: 3.8 fold
B2: nanoKAZ-HSP90β (natural protein)
chain: not shown
notes: HSP90β (HSP90AB1 gene product); Codon-optimized nanoKAZ (GenBank AB823628) fused to the amino-terminus of HSP90β; also called HSP90β fused with nanoKAZ; nanoKAZ-HSP90AB1; source: 293T cell line stably expressing nanoKAZ-HSP90β (pCAGIPuro vector), in lysate; not shown: nanoKAZ (luciferase reporter), N-terminal, kept

Source: publication PMC4522657, “Identification of a DYRK1A Inhibitor that Induces Degradation of the Target Kinase using Co-chaperone CDC37 fused with Luciferase nanoKAZ” (Scientific Reports, 2015)
